Assay results: US20180009871A1 (INTARCIA THERAPEUTICS, published 2018)
Where no end group is shown, it is not given here. [ ]: non-standard residue; d: D form. Aib = CC(C)(N)C(=O)O

B1: Compound A77 (peptide)
peptide: YSHGTFTSDYSKYLD[Aib]KTAQEFV[Aib]WLEDEPSSGAPPPS-OH
modifications: N-terminus assumed
SMILES: CC(C)C[C@H](NC(=O)[C@H](Cc1ccc(O)cc1)NC(=O)[C@H](CCCCN)NC(=O)[C@H](CO)NC(=O)[C@H](Cc1ccc(O)cc1)NC(=O)[C@H](CC(=O)O)NC(=O)[C@H](CO)NC(=O)[C@@H](NC(=O)[C@H](Cc1ccccc1)NC(=O)[C@@H](NC(=O)CNC(=O)[C@H](Cc1c[nH]cn1)NC(=O)[C@H](CO)NC(=O)[C@@H](N)Cc1ccc(O)cc1)[C@@H](C)O)[C@@H](C)O)C(=O)N[C@@H](CC(=O)O)C(=O)NC(C)(C)C(=O)N[C@@H](CCCCN)C(=O)N[C@H](C(=O)N[C@@H](C)C(=O)N[C@@H](CCC(N)=O)C(=O)N[C@@H](CCC(=O)O)C(=O)N[C@@H](Cc1ccccc1)C(=O)N[C@H](C(=O)NC(C)(C)C(=O)N[C@@H](Cc1c[nH]c2ccccc12)C(=O)N[C@@H](CC(C)C)C(=O)N[C@@H](CCC(=O)O)C(=O)N[C@@H](CC(=O)O)C(=O)N[C@@H](CCC(=O)O)C(=O)N1CCC[C@H]1C(=O)N[C@@H](CO)C(=O)N[C@@H](CO)C(=O)NCC(=O)N[C@@H](C)C(=O)N1CCC[C@H]1C(=O)N1CCC[C@H]1C(=O)N1CCC[C@H]1C(=O)N[C@@H](CO)C(=O)O)C(C)C)[C@@H](C)O
B2: Compound A76 (peptide)
peptide: YSHGTFTSDYSKYLD[Aib]KAAQEFV[Aib]WLEDEPSSGAPPPS-OH
modifications: N-terminus assumed
SMILES: CC(C)C[C@H](NC(=O)[C@H](Cc1ccc(O)cc1)NC(=O)[C@H](CCCCN)NC(=O)[C@H](CO)NC(=O)[C@H](Cc1ccc(O)cc1)NC(=O)[C@H](CC(=O)O)NC(=O)[C@H](CO)NC(=O)[C@@H](NC(=O)[C@H](Cc1ccccc1)NC(=O)[C@@H](NC(=O)CNC(=O)[C@H](Cc1c[nH]cn1)NC(=O)[C@H](CO)NC(=O)[C@@H](N)Cc1ccc(O)cc1)[C@@H](C)O)[C@@H](C)O)C(=O)N[C@@H](CC(=O)O)C(=O)NC(C)(C)C(=O)N[C@@H](CCCCN)C(=O)N[C@@H](C)C(=O)N[C@@H](C)C(=O)N[C@@H](CCC(N)=O)C(=O)N[C@@H](CCC(=O)O)C(=O)N[C@@H](Cc1ccccc1)C(=O)N[C@H](C(=O)NC(C)(C)C(=O)N[C@@H](Cc1c[nH]c2ccccc12)C(=O)N[C@@H](CC(C)C)C(=O)N[C@@H](CCC(=O)O)C(=O)N[C@@H](CC(=O)O)C(=O)N[C@@H](CCC(=O)O)C(=O)N1CCC[C@H]1C(=O)N[C@@H](CO)C(=O)N[C@@H](CO)C(=O)NCC(=O)N[C@@H](C)C(=O)N1CCC[C@H]1C(=O)N1CCC[C@H]1C(=O)N1CCC[C@H]1C(=O)N[C@@H](CO)C(=O)O)C(C)C
B3: Compound A75 (peptide)
peptide: WSHGTFTSDYSKYLD[Aib]KRAQEFV[Aib]WLEDEPSSGAPPPS-OH
modifications: N-terminus assumed
SMILES: CC(C)C[C@H](NC(=O)[C@H](Cc1ccc(O)cc1)NC(=O)[C@H](CCCCN)NC(=O)[C@H](CO)NC(=O)[C@H](Cc1ccc(O)cc1)NC(=O)[C@H](CC(=O)O)NC(=O)[C@H](CO)NC(=O)[C@@H](NC(=O)[C@H](Cc1ccccc1)NC(=O)[C@@H](NC(=O)CNC(=O)[C@H](Cc1c[nH]cn1)NC(=O)[C@H](CO)NC(=O)[C@@H](N)Cc1c[nH]c2ccccc12)[C@@H](C)O)[C@@H](C)O)C(=O)N[C@@H](CC(=O)O)C(=O)NC(C)(C)C(=O)N[C@@H](CCCCN)C(=O)N[C@@H](CCCNC(=N)N)C(=O)N[C@@H](C)C(=O)N[C@@H](CCC(N)=O)C(=O)N[C@@H](CCC(=O)O)C(=O)N[C@@H](Cc1ccccc1)C(=O)N[C@H](C(=O)NC(C)(C)C(=O)N[C@@H](Cc1c[nH]c2ccccc12)C(=O)N[C@@H](CC(C)C)C(=O)N[C@@H](CCC(=O)O)C(=O)N[C@@H](CC(=O)O)C(=O)N[C@@H](CCC(=O)O)C(=O)N1CCC[C@H]1C(=O)N[C@@H](CO)C(=O)N[C@@H](CO)C(=O)NCC(=O)N[C@@H](C)C(=O)N1CCC[C@H]1C(=O)N1CCC[C@H]1C(=O)N1CCC[C@H]1C(=O)N[C@@H](CO)C(=O)O)C(C)C
B4: Compound A67 (peptide)
peptide: YSHGTFTSDYSKYLD[Aib]ARAQEFV[Aib]WLEDEPKSKSPPPS-NH2
modifications: N-terminus assumed
SMILES: CC(C)C[C@H](NC(=O)[C@H](Cc1ccc(O)cc1)NC(=O)[C@H](CCCCN)NC(=O)[C@H](CO)NC(=O)[C@H](Cc1ccc(O)cc1)NC(=O)[C@H](CC(=O)O)NC(=O)[C@H](CO)NC(=O)[C@@H](NC(=O)[C@H](Cc1ccccc1)NC(=O)[C@@H](NC(=O)CNC(=O)[C@H](Cc1c[nH]cn1)NC(=O)[C@H](CO)NC(=O)[C@@H](N)Cc1ccc(O)cc1)[C@@H](C)O)[C@@H](C)O)C(=O)N[C@@H](CC(=O)O)C(=O)NC(C)(C)C(=O)N[C@@H](C)C(=O)N[C@@H](CCCNC(=N)N)C(=O)N[C@@H](C)C(=O)N[C@@H](CCC(N)=O)C(=O)N[C@@H](CCC(=O)O)C(=O)N[C@@H](Cc1ccccc1)C(=O)N[C@H](C(=O)NC(C)(C)C(=O)N[C@@H](Cc1c[nH]c2ccccc12)C(=O)N[C@@H](CC(C)C)C(=O)N[C@@H](CCC(=O)O)C(=O)N[C@@H](CC(=O)O)C(=O)N[C@@H](CCC(=O)O)C(=O)N1CCC[C@H]1C(=O)N[C@@H](CCCCN)C(=O)N[C@@H](CO)C(=O)N[C@@H](CCCCN)C(=O)N[C@@H](CO)C(=O)N1CCC[C@H]1C(=O)N1CCC[C@H]1C(=O)N1CCC[C@H]1C(=O)N[C@@H](CO)C(N)=O)C(C)C
B5: Compound A68 (peptide)
peptide: YSHGTFTSDYSKYLD[Aib]ARAQEFV[Aib]WLEDEPKSKEPPPS-NH2
modifications: N-terminus assumed
SMILES: CC(C)C[C@H](NC(=O)[C@H](Cc1ccc(O)cc1)NC(=O)[C@H](CCCCN)NC(=O)[C@H](CO)NC(=O)[C@H](Cc1ccc(O)cc1)NC(=O)[C@H](CC(=O)O)NC(=O)[C@H](CO)NC(=O)[C@@H](NC(=O)[C@H](Cc1ccccc1)NC(=O)[C@@H](NC(=O)CNC(=O)[C@H](Cc1c[nH]cn1)NC(=O)[C@H](CO)NC(=O)[C@@H](N)Cc1ccc(O)cc1)[C@@H](C)O)[C@@H](C)O)C(=O)N[C@@H](CC(=O)O)C(=O)NC(C)(C)C(=O)N[C@@H](C)C(=O)N[C@@H](CCCNC(=N)N)C(=O)N[C@@H](C)C(=O)N[C@@H](CCC(N)=O)C(=O)N[C@@H](CCC(=O)O)C(=O)N[C@@H](Cc1ccccc1)C(=O)N[C@H](C(=O)NC(C)(C)C(=O)N[C@@H](Cc1c[nH]c2ccccc12)C(=O)N[C@@H](CC(C)C)C(=O)N[C@@H](CCC(=O)O)C(=O)N[C@@H](CC(=O)O)C(=O)N[C@@H](CCC(=O)O)C(=O)N1CCC[C@H]1C(=O)N[C@@H](CCCCN)C(=O)N[C@@H](CO)C(=O)N[C@@H](CCCCN)C(=O)N[C@@H](CCC(=O)O)C(=O)N1CCC[C@H]1C(=O)N1CCC[C@H]1C(=O)N1CCC[C@H]1C(=O)N[C@@H](CO)C(N)=O)C(C)C
B6: Compound A66 (peptide)
peptide: YSHGTFTSDYSKYLD[Aib]KRAQEFV[Aib]WLEDEPKSKSPPPS-NH2
modifications: N-terminus assumed
SMILES: CC(C)C[C@H](NC(=O)[C@H](Cc1ccc(O)cc1)NC(=O)[C@H](CCCCN)NC(=O)[C@H](CO)NC(=O)[C@H](Cc1ccc(O)cc1)NC(=O)[C@H](CC(=O)O)NC(=O)[C@H](CO)NC(=O)[C@@H](NC(=O)[C@H](Cc1ccccc1)NC(=O)[C@@H](NC(=O)CNC(=O)[C@H](Cc1c[nH]cn1)NC(=O)[C@H](CO)NC(=O)[C@@H](N)Cc1ccc(O)cc1)[C@@H](C)O)[C@@H](C)O)C(=O)N[C@@H](CC(=O)O)C(=O)NC(C)(C)C(=O)N[C@@H](CCCCN)C(=O)N[C@@H](CCCNC(=N)N)C(=O)N[C@@H](C)C(=O)N[C@@H](CCC(N)=O)C(=O)N[C@@H](CCC(=O)O)C(=O)N[C@@H](Cc1ccccc1)C(=O)N[C@H](C(=O)NC(C)(C)C(=O)N[C@@H](Cc1c[nH]c2ccccc12)C(=O)N[C@@H](CC(C)C)C(=O)N[C@@H](CCC(=O)O)C(=O)N[C@@H](CC(=O)O)C(=O)N[C@@H](CCC(=O)O)C(=O)N1CCC[C@H]1C(=O)N[C@@H](CCCCN)C(=O)N[C@@H](CO)C(=O)N[C@@H](CCCCN)C(=O)N[C@@H](CO)C(=O)N1CCC[C@H]1C(=O)N1CCC[C@H]1C(=O)N1CCC[C@H]1C(=O)N[C@@H](CO)C(N)=O)C(C)C

target: human glucagon receptor (GCGR) (human, UniProt P47871 26-477); experiment: cell-based or functional assay

Row | Binder | hGCGR pEC50 (cAMP) [pEC50]
1 | B1 | 11.5
2 | YSHGTFTSDYSKYLDSARAQEFVKWLEDEPKSKAPPPS-OH [Compound A71] | 11.7
3 | YSHGTFTSDYSKYLDSARAQEFVKWLEDEPKSKAPPPS-NH2 [Compound A74] | 11.6
4 | B2 | 12.7
5 | B3 | 11.3
6 | B4 | 10.9
7 | YSHGTFTSDYSKYLDSARAQEFVKWLEDEPKSKEPPPS-NH2 [Compound A72] | 12.1
8 | YSHGTFTSDYSKYLDSARAQEFVKWLEDEPKSKSPPPS-OH [Compound A70] | 12
9 | YSHGTFTSDYSKYLDSARAQEFVKWLEDEPKSKSPPPS-NH2 [Compound A73] | 11.7
10 | YSHGTFTSDYSKYLDSARAQEFVKWLEDEPKSKEPPPS-OH [Compound A69] | 11.8
11 | B5 | 11.3
12 | B6 | 12.5

target: human GLP-1 receptor (GLP-1R) (human, UniProt P43220 24-463); experiment: cell-based or functional assay
Sequence (P43220 24-463): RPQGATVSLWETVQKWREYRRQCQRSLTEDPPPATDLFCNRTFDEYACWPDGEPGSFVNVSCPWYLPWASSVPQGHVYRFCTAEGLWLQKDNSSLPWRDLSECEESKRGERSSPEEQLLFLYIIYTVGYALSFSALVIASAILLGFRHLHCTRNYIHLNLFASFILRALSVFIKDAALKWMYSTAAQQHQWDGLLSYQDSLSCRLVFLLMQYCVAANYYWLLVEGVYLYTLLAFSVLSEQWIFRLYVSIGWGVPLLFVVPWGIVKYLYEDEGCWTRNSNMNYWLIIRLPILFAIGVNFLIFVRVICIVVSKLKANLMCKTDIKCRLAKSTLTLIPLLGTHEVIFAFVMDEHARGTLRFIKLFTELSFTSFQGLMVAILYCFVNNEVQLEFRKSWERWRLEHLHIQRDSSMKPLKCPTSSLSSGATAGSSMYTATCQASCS

Row | Binder | hGLP1 pEC50 (cAMP) [pEC50]
13 | B1 | < 9
14 | YSHGTFTSDYSKYLDSARAQEFVKWLEDEPKSKAPPPS-OH [Compound A71] | < 9
15 | YSHGTFTSDYSKYLDSARAQEFVKWLEDEPKSKAPPPS-NH2 [Compound A74] | < 9
16 | B2 | < 9
17 | B3 | < 9
18 | B4 | < 9
19 | YSHGTFTSDYSKYLDSARAQEFVKWLEDEPKSKEPPPS-NH2 [Compound A72] | < 9
20 | YSHGTFTSDYSKYLDSARAQEFVKWLEDEPKSKSPPPS-OH [Compound A70] | < 9
21 | YSHGTFTSDYSKYLDSARAQEFVKWLEDEPKSKSPPPS-NH2 [Compound A73] | < 9
22 | YSHGTFTSDYSKYLDSARAQEFVKWLEDEPKSKEPPPS-OH [Compound A69] | < 9
23 | B5 | < 9
24 | B6 | < 9
